The record followed here is patent publication US6077666.

Experiment [1] deals with somatostatin receptors in GH4 C1 cells. The experiment can be described thus: radioligand filtration binding on crude GH4 C1 membranes, antisense-treated against vehicle and sense-treated cells.
The target is the same in experiment [2]. The experiment in a line: radioligand filtration binding on crude GH4 C1 membranes, cells treated with antisense oligo for 24 hours.
Experiment [3] has the same target. The experiment in a line: radioligand filtration binding on crude GH4 C1 membranes, sense oligo treated cells.
Experiment [4] shares this target. The experiment can be described thus: radioligand filtration binding on crude GH4 C1 membranes, vehicle-treated cells.

“[125I]tyr-somatostatin, S-14 (from UniProt P61278) (peptide)” registered a decline in [125I]tyr-somatostatin binding after antisense treatment in experiment [1] of 60%. The substance also displayed a [125I]tyr-somatostatin binding, antisense oligo treated cells in experiment [2] of 166 fmol/mg. Besides, in experiment [3], the [125I]tyr-somatostatin binding (fmol/mg), sense oligo treated cells came to 350 fmol/mg. In experiment [4], this substance showed a [125I]tyr-somatostatin binding (fmol/mg), vehicle-treated cells of 408 fmol/mg.
